Tests used:
Type in all cases: biochemical
[1] = BNA(H)-mediated PTDH biotransformation with TsOYE
Description: BNA(H)-Mediated PTDH Biotransformation. Reactions with BNA^+, see FIG. 10D, contained 100 mM MOPS-NaOH at pH 7.6, 10 mM KIP, 100 mM sodium phosphite, and 2% v/v DMSO. BNA^+Cl^−, prepared by refluxing equimolar amounts of nicotinamide and benzyl chloride in acetonitrile overnight, followed by precipitation with diethyl ether on ice was supplied to the reactions at final concentrations of 0, 5, 10, or 20 mM. Reactions were initiated by spiking TsOYE and the appropriate TS-PTDH variant to a final concentration of 10 μM, each. Reaction mixtures were incubated at 30° C. on a Thermomixer C (Eppendorf) with shaking at 900 rpm for 24 h, extracted with 500 μL ethyl acetate containing 5 mM n-dodecane, and analyzed by GC-FID. The cycling system with no BNA was used to determine the background activity of the cycling systems. This value was subtracted from the final levodione concentrations in the 5-, 10-, and 20-mM samples to determine the BNA(H)^− specific levodione production. Concentrations of levodione product were determined using a calibration line (0-10 mM, 6 levels, using n-dodecane as internal standard). The y-intercept of the calibration line was forced through 0.
For BNA(H)-mediated reactions, gas chromatography analyses were performed on a GC-2010 (Shimadzu, Japan) equipped with an AOC-20i auto injector and a flame ionization detector (FID), using a CP-Sil 5 column (25 m×0.25 mm×[…]). 1 μL of sample was injected with a split ratio of 100:1 and injector at 340° C. The FID was maintained at 360° C. Nitrogen was used as the carrier gas, with a linear velocity of 30 cm/s. The oven was held at 135° C. for 1 min, ramped at 15° C./min to 215° C., then 30° C./min to 345° C., and held at 345° C. for 1 min.
Expression and Purification of Proteins for BNA(H)-Mediated Biotransformation Reactions. E. coli BL21(DE3) strains were transformed with the plasmids containing the TS-PTDH variants and grown on LB-agar plates containing ampicillin at 37° C. overnight. An overnight culture, 15 mL LB supplemented with ampicillin, was inoculated with a single colony, and grown at 37° C., 170 rpm overnight. 2 L baffled shake-flasks with 250 mL of 2×YT media containing 200 μg/mL ampicillin, were inoculated with the overnight culture, grown at 37° C., 170 rpm until OD600 of ˜1.0, induced with IPTG (0.5 mM), and grown at 30° C. and 170 rpm for 24 h. Cells were harvested by centrifugation at 18,000×g, 4° C., 10 min and stored at −20° C. until purification.
The pellet was resuspended in four volumes loading buffer (50 mM sodium phosphate, 300 mM sodium chloride, 10 mM imidazole, pH 7.7), and lysed on ice by sonication (Branson sonifier 250; 15 min total, 40% duty cycle, output control 3.5, 2 mm tip). The lysate was clarified (21,000×g, 4° C., 30 min followed by 0.2 μm filtration), and loaded (1 mL/min) onto a Nickel-HisTrap FF crude (1 mL) column, washed with loading buffer (12 column volumes, CV), followed by a step with 10% elution buffer (loading buffer containing 250 mM imidazole; 12 CV). The protein was then eluted with 100% elution buffer and collected in fractions of 0.5 mL. Fractions containing protein were combined and dialyzed against ice-cold dialysis buffer (50 mM sodium phosphate, pH 7.7, 800 mL); the buffer was renewed after the first 2 h of dialysis. Following the dialysis, the protein was mixed with glycerol (20% v/v final concentration). Enzyme concentrations were estimated by the absorbance at 280 nm (non-denatured protein), using predicted extinction coefficients (wild type and LY-13: 26470, LY-7: […]; web.expasy.org/protparam/). The protein was aliquoted, flash frozen in liquid nitrogen, and stored at −80° C. until use. […]

[2] = Steady-state kinetics of TS-PTDH variants with NMN^+
[3] = TS-PTDH total turnover number determination (NMN(H) cycling with XenA, KIP to levodione); conditions: averaged over the 16-day reaction
Description: TS-PTDH Total Turnover Number Determination. Reactions to determine the TTN of TS-PTDH LY-13 (see FIG. 10B) were performed at 1 mL volumes in 2 mL glass vials secured with a PTFE-lined screw cap. Reactions were incubated without shaking at 30° C. Reaction buffer was comprised of 200 mM MOPS at pH 7.5, 100 mM sodium phosphite, 6 mM NMN^+, and 33 mM ketoisophorone (KIP). To initiate the reaction, purified TS-PTDH LY-13 and XenA were spiked into the reaction mixture to a final concentration of 0.25 μM and 18.8 μM, respectively. The reactions were sampled intermittently by removing 50 μL of reaction mixture and mixing with 100 μL of ethyl acetate containing 200 mg/L1-octanol. Samples were vortexed, centrifuged, and the ethyl acetate fraction was transferred to a GC vial for GC-FID analysis. GC-FID analysis for KIP biotransformation efficiency was performed on an Agilent 6850 GD using an Agilent DB-WAX column (30 m×0.56 mm×1 μm). Helium was used as a carrier gas. The inlet and detector were held at 250 and 260° C., respectively. 5 μL of sample was injected with a 2:1 split ratio. […] TTN was calculated by the moles of levodione produced divided by the moles of LY-13 supplied to the reaction system. Total turnover frequency was determined by dividing TTN by the total reaction time of 384 h. Levodione concentration was determined by correlating sample response to a standard curve of known values.

[4] = 100 mM MOPS, pH 7.25, 10 mM sodium phosphite, varied cofactor concentrations, n = 3

B1: LY-13: phosphite dehydrogenase variant with A155N, E175A, A176F (SEQ ID NO: 6) (protein)
chain: MLPKLVITHRVHEEILQLLAPHCELITNQTDSTLTREEILRRCRDAQAMMAFMPDRVDADFLQACPELRVIGCALKGFDNFDVDACTARGVWLTFVPDLLTVPTAELAIGLAVGLGRHLRAADAFVRSGKFRGWQPRFYGTGLDNATVGFLGMGNIGLAMADRLQGWGATLQYHAFKALDTQTEQRLGLRQVACSELFASSDFILLALPLNADTLHLVNAELLALVRPGALLVNPCRGSVVDEAAVLAALERGQLGGYAADVFEMEDWARADRPQQIDPALLAHPNTLFTPHIGSAVRAVRLEIERCAAQNILQALAGERPINAVNRLPKANPAAD
For B1, the “activity / cycling with BNA^+ compared to wild type” value [1] was “enhanced activity for BNA^+ reduction”, the “response of biotransformation efficiency to BNA^+ concentration” value ([1]; 0, 5, 10, or 20 mM BNA^+) was “cofactor dose-dependent response” and the “utilization of the BNA^+ pool relative to the wild type protein” value ([1]; 20 mM BNA^+ supplementation, TsOYE, 24 h) was “improved utilization of the BNA^+ pool”. For the same molecule, the Km [2, 4] was 620 µM, the “NMN^+ kcat” value [2, 4] was 0.27 ± 0.01 s⁻¹ and the “increase in catalytic efficiency for NMN^+ compared to TS-PTDH (wild type enzyme)” value ([2]; vs TS-PTDH) was about 110 fold. The “increased catalytic efficiency (kcat/Km) for NMN^+ compared to TS-PTDH A155N” value ([2]; vs parent enzyme TS-PTDH A155N) was about 44 fold and the “Total Turnover Frequency” value [3] was about 117 turnovers per hour.

From patent US20230322857A1, “RECOMBINANTLY ENGINEERED POLYPEPTIDES CAPABLE OF RECYCLING NONCANONICAL COFACTORS” (The Regents of the University of California, priority 2022, published 2023)
